Source: paper PMC3419730, “NRFL-1, the C. elegans NHERF Orthologue, Interacts with Amino Acid Transporter 6 (AAT-6) for Age-Dependent Maintenance of AAT-6 on the Membrane” (PLoS ONE, 2012)

Key:
[1] = target: T1, 3×FLAG-NRFL-1 with PDZ I mutated (G26A/Y27A) (C. elegans, UniProt G5EDM4 1-467, G26A | Y27A); test: pull-down; GST pull-down: 2 µg GST fusion protein and 5 µg recombinant 3×FLAG-NRFL-1, overnight at 4°C in 50 mM Tris pH 7.4, 150 mM NaCl, 5 mM EDTA, 0.1% NP-40; blot with anti-FLAG; settings: both partners purified
T1 construct: not shown: GST, N-terminal, cleaved; 3×FLAG, N-terminal, kept
T1 sequence (looked up): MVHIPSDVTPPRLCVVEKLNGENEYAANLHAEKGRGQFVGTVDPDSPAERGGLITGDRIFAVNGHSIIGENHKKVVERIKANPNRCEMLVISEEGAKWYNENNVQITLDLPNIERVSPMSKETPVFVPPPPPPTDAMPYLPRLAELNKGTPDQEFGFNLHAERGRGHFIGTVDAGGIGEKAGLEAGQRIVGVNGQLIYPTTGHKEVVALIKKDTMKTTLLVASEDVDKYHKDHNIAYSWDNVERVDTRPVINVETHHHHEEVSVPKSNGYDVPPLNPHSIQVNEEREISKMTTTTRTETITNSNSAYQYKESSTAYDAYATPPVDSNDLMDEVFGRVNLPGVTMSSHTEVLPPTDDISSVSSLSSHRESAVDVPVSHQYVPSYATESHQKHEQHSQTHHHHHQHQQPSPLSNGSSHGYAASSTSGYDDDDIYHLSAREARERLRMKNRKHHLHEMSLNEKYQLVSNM

[2] = target: T2, 3×FLAG-NRFL-1 (wild type) (C. elegans, UniProt G5EDM4 1-467); test: as above; settings: both partners purified
T2 construct: NRFL-1 (C01F6.6a), C. elegans, full-length wild type; cDNA first ligated into p3×FLAG-myc-CMV-24, then the 3×FLAG-NRFL-1 fragment moved into pGEX-6P-1; also called recombinant NRFL-1 wild-type; not shown: GST, N-terminal, cleaved; 3×FLAG, N-terminal, kept
T2 sequence (looked up): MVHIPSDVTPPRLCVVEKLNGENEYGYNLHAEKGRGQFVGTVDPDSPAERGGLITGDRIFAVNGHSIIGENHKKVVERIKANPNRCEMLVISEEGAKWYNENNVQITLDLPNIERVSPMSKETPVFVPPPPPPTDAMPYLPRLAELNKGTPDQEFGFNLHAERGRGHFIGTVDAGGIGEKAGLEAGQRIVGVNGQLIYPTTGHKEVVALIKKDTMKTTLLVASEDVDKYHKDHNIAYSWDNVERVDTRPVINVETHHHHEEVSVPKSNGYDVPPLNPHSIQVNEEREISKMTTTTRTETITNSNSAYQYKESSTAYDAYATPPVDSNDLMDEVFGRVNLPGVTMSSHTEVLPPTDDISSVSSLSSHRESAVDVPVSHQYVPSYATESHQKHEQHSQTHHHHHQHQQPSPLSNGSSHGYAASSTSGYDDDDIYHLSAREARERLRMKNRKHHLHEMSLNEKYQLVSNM

binding result [1]: binds
binding result [2]: binds
B1: GST fusion of AAT-6 C-terminus tail corresponding to residues 487–523 (domain or fragment, C. elegans, UniProt Q22397 487-523, looked up)
chain: GDEEMKNAIGGAESESEKVPAYKISPTGNGQFKCTRM
notes: also called GST-AAT-6; source: E. coli BL21 (DE3), purified (Glutathione Sepharose 4B); not shown: GST, N-terminal, kept
